T1: PUF4 RNA-binding domain (Saccharomyces cerevisiae, UniProt P25339 537-888)
T1 sequence: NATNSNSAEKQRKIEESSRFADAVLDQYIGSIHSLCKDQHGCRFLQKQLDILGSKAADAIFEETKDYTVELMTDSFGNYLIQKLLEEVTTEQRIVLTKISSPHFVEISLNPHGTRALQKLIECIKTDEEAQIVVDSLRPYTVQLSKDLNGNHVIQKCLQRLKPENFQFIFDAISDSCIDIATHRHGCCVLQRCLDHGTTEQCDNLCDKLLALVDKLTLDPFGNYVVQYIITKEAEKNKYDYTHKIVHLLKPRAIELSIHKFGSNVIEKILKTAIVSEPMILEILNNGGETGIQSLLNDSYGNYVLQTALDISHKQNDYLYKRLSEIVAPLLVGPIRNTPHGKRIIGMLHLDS

B1: Id_ii_S1_P5E.2_K5.1_C5.2_[C-2T]_[T-1C]_H5.1_A5.1_F5.1_T5.2_[A12T] (ssRNA)
RNA: UCUCUUUCUGUAUUAUUAUUUCUCUU
B2: Ic_S1_P4E.1_K4.1_C4.1_H4.1_A4.1_[T5A]_[T7G]_F4.1_T4.1 (ssRNA)
RNA: UCUCUUUGUAAAGUAUCUCUU
B3: Id_ii_S1_P5E.2_K5.1_C5.2_[C-2T]_[T-1A]_H5.1_A5.1_F5.1_T5.2_[T11A]_[A12T] (ssRNA)
RNA: UCUCUUUAUGUAUUAUUAAUUCUCUU
B4: Id_ii_S1_P5E.2_K5.1_C5.2_[C-2T]_H5.1_A5.1_F5.1_T5.2_[T11G]_[A12T] (ssRNA)
RNA: UCUCUUUUUGUAUUAUUAGUUCUCUU
B5: Id_ii_S1_P5E.2_K5.1_C5.2_[T-1C]_H5.1_A5.1_F5.1_T5.2_[T11A]_[A12C] (ssRNA)
RNA: UCUCUUCCUGUAUUAUUAACUCUCUU
B6: Id_ii_S1_P5E.2_K5.1_C5.2_[C-2T]_[T-1C]_H5.1_A5.1_F5.1_T5.2_[A12C] (ssRNA)
RNA: UCUCUUUCUGUAUUAUUAUCUCUCUU
B7: Id_ii_S1_P5E.2_K5.1_C5.2_[C-2A]_H5.1_A5.1_F5.1_T5.2_[A12T] (ssRNA)
RNA: UCUCUUAUUGUAUUAUUAUUUCUCUU
B8: Id_ii_S1_P5E.2_K5.1_C5.2_[C-2T]_[T-1A]_H5.1_A5.1_F5.1_T5.2_[T11A]_[A12C] (ssRNA)
RNA: UCUCUUUAUGUAUUAUUAACUCUCUU
B9: Id_ii_S1_P5E.2_K5.1_C5.2_[C-2T]_H5.1_A5.1_F5.1_T5.2_[T11A]_[A12G] (ssRNA)
RNA: UCUCUUUUUGUAUUAUUAAGUCUCUU
B10: Id_ii_S1_P5E.2_K5.1_C5.2_H5.1_A5.1_F5.1_T5.2_[T11G]_[A12T] (ssRNA)
RNA: UCUCUUCUUGUAUUAUUAGUUCUCUU
B11: Id_ii_S1_P5E.2_K5.1_C5.2_[C-2T]_[T-1C]_H5.1_A5.1_F5.1_T5.2_[A12G] (ssRNA)
RNA: UCUCUUUCUGUAUUAUUAUGUCUCUU
B12: Id_ii_S1_P5E.2_K5.1_C5.2_[T-1G]_H5.1_A5.1_F5.1_T5.2_[A12C] (ssRNA)
RNA: UCUCUUCGUGUAUUAUUAUCUCUCUU
B13: Id_ii_S1_P5E.2_K5.1_C5.2_[T-1A]_H5.1_A5.1_F5.1_T5.2_[T11A]_[A12T] (ssRNA)
RNA: UCUCUUCAUGUAUUAUUAAUUCUCUU
B14: Id_ii_S1_P5E.2_K5.1_C5.2_[C-2T]_H5.1_A5.1_F5.1_T5.2_[A12T] (ssRNA)
RNA: UCUCUUUUUGUAUUAUUAUUUCUCUU
B15: Ib_S1_P4E.1_K4.1_C4.1_H4.1_A4.1_[A6G]_[T7C]_F4.1_T4.1 (ssRNA)
RNA: UCUCUUUGUAUGCUAUCUCUU
B16: Id_ii_S1_P5E.2_K5.1_C5.2_[C-2T]_[T-1A]_H5.1_A5.1_F5.1_T5.2_[A12C] (ssRNA)
RNA: UCUCUUUAUGUAUUAUUAUCUCUCUU
B17: Id_ii_S1_P5E.2_K5.1_C5.2_[T-1A]_H5.1_A5.1_F5.1_T5.2_[A12C] (ssRNA)
RNA: UCUCUUCAUGUAUUAUUAUCUCUCUU
B18: Id_ii_S1_P5E.2_K5.1_C5.2_[C-2A]_[T-1C]_H5.1_A5.1_F5.1_T5.2_[T11A] (ssRNA)
RNA: UCUCUUACUGUAUUAUUAAAUCUCUU
B19: Id_ii_S1_P5E.2_K5.1_C5.2_[C-2A]_[T-1C]_H5.1_A5.1_F5.1_T5.2_[A12T] (ssRNA)
RNA: UCUCUUACUGUAUUAUUAUUUCUCUU
B20: Id_ii_S1_P5E.2_K5.1_C5.2_H5.1_A5.1_F5.1_T5.2_[T11A]_[A12C] (ssRNA)
RNA: UCUCUUCUUGUAUUAUUAACUCUCUU
B21: Id_ii_S1_P5E.2_K5.1_C5.2_[T-1C]_H5.1_A5.1_F5.1_T5.2_[A12C] (ssRNA)
RNA: UCUCUUCCUGUAUUAUUAUCUCUCUU
B22: Id_ii_S1_P5E.2_K5.1_C5.2_[C-2T]_H5.1_A5.1_F5.1_T5.2_[T11A] (ssRNA)
RNA: UCUCUUUUUGUAUUAUUAAAUCUCUU
B23: Id_ii_S1_P5E.2_K5.1_C5.2_[T-1G]_H5.1_A5.1_F5.1_T5.2_[T11A]_[A12C] (ssRNA)
RNA: UCUCUUCGUGUAUUAUUAACUCUCUU
B24: Id_ii_S1_P5E.2_K5.1_C5.2_[T-1G]_H5.1_A5.1_F5.1_T5.2_[T11A]_[A12G] (ssRNA)
RNA: UCUCUUCGUGUAUUAUUAAGUCUCUU
B25: Ib_S1_P4E.1_K4.1_C4.1_H4.1_A4.1_[T5C]_[T7A]_F4.1_T4.1 (ssRNA)
RNA: UCUCUUUGUACAAUAUCUCUU
B26: Id_ii_S1_P5E.2_K5.1_C5.2_[T-1G]_H5.1_A5.1_F5.1_T5.2_[T11A]_[A12T] (ssRNA)
RNA: UCUCUUCGUGUAUUAUUAAUUCUCUU
B27: Id_ii_S1_P5E.2_K5.1_C5.2_[C-2T]_[T-1A]_H5.1_A5.1_F5.1_T5.2_[T11G]_[A12C] (ssRNA)
RNA: UCUCUUUAUGUAUUAUUAGCUCUCUU
B28: Id_ii_S1_P5E.2_K5.1_C5.2_[T-1G]_H5.1_A5.1_F5.1_T5.2_[A12T] (ssRNA)
RNA: UCUCUUCGUGUAUUAUUAUUUCUCUU
B29: Id_ii_S1_P5E.2_K5.1_C5.2_[T-1C]_H5.1_A5.1_F5.1_T5.2_[A12G] (ssRNA)
RNA: UCUCUUCCUGUAUUAUUAUGUCUCUU
B30: Id_ii_S1_P5E.2_K5.1_C5.2_[C-2T]_H5.1_A5.1_F5.1_T5.2_[A12G] (ssRNA)
RNA: UCUCUUUUUGUAUUAUUAUGUCUCUU
B31: Id_ii_S1_P5E.2_K5.1_C5.2_[T-1A]_H5.1_A5.1_F5.1_T5.2_[A12T] (ssRNA)
RNA: UCUCUUCAUGUAUUAUUAUUUCUCUU

The binders below were run against T1, PUF4 RNA-binding domain (assay: Mg; RNA-MaP; 20 mM Na-HEPES pH 7.4, 30 mM KOAc, 0.75 mM MgCl2, 0.1% Tween-20, 5% glycerol, 0.1 mg/mL BSA, 2 mM DTT; 25 C; 0.0125-409.6 nM protein). Details: tags: N-His6-TEV cleaved; C-SNAP kept, Cy3B-labelled; label: tethered on chip by stalled RNA polymerase.

B1 and B2 are within 1.5-fold of each other in Kd: 5.27 nM for the first, 7.21 nM for the second.

First: B3
Second: B4
The Kd of the first is 3-fold higher: 10.6 nM for the first, 3.49 nM for the second.

B5 and B6 are within 1.5-fold of each other in Kd: 7.24 nM for the first, 4.88 nM for the second.

Going from B7 to B8, the Kd rises from 5.93 nM to 13.9 nM (2.3-fold). The first binds more tightly here.

First: B9
Second: B10
The Kd of the first is 4.4-fold higher: 17 nM for the first, 3.87 nM for the second. The second binds more tightly here.

B11 and B12 are within 1.5-fold of each other in Kd: 5.28 nM for the first, 7.38 nM for the second.

B13 and B14 are within 1.5-fold of each other in Kd: 7.68 nM for the first, 10.2 nM for the second.

B15 and B16 are within 1.5-fold of each other in Kd: 7.91 nM for the first, 8.06 nM for the second.

Going from B17 to B18, the Kd rises from 7.59 nM to 23.8 nM (3.1-fold). The first binds more tightly here.

First: B19
Second: B20
The Kd of the first is 1.6-fold higher: 8.56 nM for the first, 5.25 nM for the second.

Compared with B21, B22 is 2.5-fold higher in Kd: 6.56 nM for the first, 16.4 nM for the second. The first binds more tightly here.

B23 and B24 are within 1.5-fold of each other in Kd: 12.5 nM for the first, 14.8 nM for the second.

Going from B25 to B26, the Kd rises from 1.29 nM to 10.1 nM (7.8-fold).

Going from B27 to B28, the Kd rises from 4.56 nM to 7.48 nM (1.6-fold). The first binds more tightly here.

B29 and B30 are within 1.5-fold of each other in Kd: 6.12 nM for the first, 7.22 nM for the second.

B31 showed a Kd of 9.94 nM.

Source: PMC9352680, “A comprehensive thermodynamic model for RNA binding by the Saccharomyces cerevisiae Pumilio protein PUF4”
